Measurements published in doi:10.1101/068965.

Target: EGFP-LOV2-OPTN_((412-520)) (Avena sativa | not stated) (UniProt Q96CV9)
Assay: SEC

stoichiometry N: 2
Substance: EGFP-LOV2-OPTN_((412-520)) (from UniProt Q96CV9 412-520) (designed binder)
